Patent publication US20180155450A1 (Sanofi, published 2018)
Like-named read-outs stand apart in the source and are kept apart here.

What was measured:
[1] = molecular target: T1, recombinant human IL13 (human, UniProt P35225 35-146, limits assumed); assay: SPR, BIACORE 3000; antibody captured by anti-human Fc, antigen 0-25 nM as analyte
T1 construct: also called Antigen2
T1 sequence (P35225 35-146 limits assumed): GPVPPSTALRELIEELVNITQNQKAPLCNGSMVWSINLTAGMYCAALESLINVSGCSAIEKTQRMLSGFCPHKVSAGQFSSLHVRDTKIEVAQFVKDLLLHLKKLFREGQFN
Method: (§1) Kinetic characterization of purified antibodies was performed using surface plasmon resonance technology on a BIACORE 3000 (GE Healthcare). […] Chip surfaces were regenerated with 10 mM glycine, pH 2.5. Kinetic parameters were analyzed and calculated in the BIAevaluation program package v4.1 using a flow cell without captured antibody as reference.

[2] = molecular target: recombinant human IL13 (human, UniProt P35225 35-146, limits assumed); assay: cell-based or functional assay
Target sequence in this assay (P35225 35-146 limits assumed): as above

[3] = molecular target: T2, recombinant human IL4 (human, UniProt P05112 25-153); assay: cell-based or functional assay
T2 sequence (looked up): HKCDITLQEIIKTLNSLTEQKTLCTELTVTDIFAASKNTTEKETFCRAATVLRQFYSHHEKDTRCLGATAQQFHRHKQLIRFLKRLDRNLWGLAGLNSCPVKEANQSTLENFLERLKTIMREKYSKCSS

[4] = molecular target: T1, recombinant human IL13; assay: SPR, Biacore 3000; CODV-Ig captured by anti-human Fc, antigen as analyte
Method: (§2) Kinetic binding analysis by Biacore was performed as follows. Surface plasmon resonance technology on a Biacore 3000 (GE Healthcare) was used for detailed kinetic characterization of purified antibodies. […] Chip surfaces were regenerated with 10 mM glycine pH 2.5. Kinetic parameters were analyzed and calculated in the BIAevaluation program package v4.1 using a flow cell without captured antibody as a reference.

[5] = molecular target: T3, recombinant human IL4 (human, UniProt P05112 25-153); assay: as above
T3 construct: also called Antigen1
T3 sequence (looked up): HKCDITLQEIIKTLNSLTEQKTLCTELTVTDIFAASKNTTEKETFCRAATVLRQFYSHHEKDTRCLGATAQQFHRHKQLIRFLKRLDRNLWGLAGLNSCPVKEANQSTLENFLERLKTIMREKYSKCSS
Method: as §2

[6] = molecular target: T3, recombinant human IL4; assay: kinetic table drawn in the figure; assay not named in Example 9, parental rows equal the BIACORE values of Table 6
[7] = molecular target: T3, recombinant human IL4; assay: SPR, BIACORE 3000; antibody captured by anti-human Fc, antigen 0-25 nM as analyte
Method: as §1

[8] = molecular target: T2, recombinant human IL4; assay: SPR (Biacore 3000), antibody captured, antigen as analyte
Method: as §2

[9] = molecular target: T2, recombinant human IL4; assay: cell-based or functional assay; remark: listed apart in the source
[10] = molecular target: T2, recombinant human IL4; assay: SPR (Biacore 3000), antibody captured, antigen as analyte; remark: listed apart in the source
Method: as §2

[11] = molecular target: T2, recombinant human IL4; assay: as above; remark: listed apart in the source
Method: as §2

[12] = molecular target: T2, recombinant human IL4; assay: SPR (Biacore 3000), CODV-Fab captured with anti-human Fab capture kit, antigen as analyte
Method: as §2

B1: parental anti-IL13 mAb (antibody, V domains shown)
VH: EVQLKESGPGLVAPGGSLSITCTVSGFSLTDSSINWVRQPPGKGLEWLGMIWGDGRIDYADALKSRLSISKDSSKSQVFLEMTSLRTDDTATYYCARDGYFPYAMDFWGQGTSVTVSS
VL: DIVLTQSPASLAVSLGQRATISCRASESVDSYGQSYMHWYQQKAGQPPKLLIYLASNLESGVPARFSGSGSRTDFTLTIDPVQAEDAATYYCQQNAEDSRTFGGGTKLEIK
notes: also called parental humanized anti-IL13; BB13
B1 showed a Kd [1] of 0.0818 nM.

B2: CODV-Ig Batch ID 601 (Batch ID 204 with P344C & A432C in IGHG1) (bispecific antibody, human IgG1, kappa)
heavy: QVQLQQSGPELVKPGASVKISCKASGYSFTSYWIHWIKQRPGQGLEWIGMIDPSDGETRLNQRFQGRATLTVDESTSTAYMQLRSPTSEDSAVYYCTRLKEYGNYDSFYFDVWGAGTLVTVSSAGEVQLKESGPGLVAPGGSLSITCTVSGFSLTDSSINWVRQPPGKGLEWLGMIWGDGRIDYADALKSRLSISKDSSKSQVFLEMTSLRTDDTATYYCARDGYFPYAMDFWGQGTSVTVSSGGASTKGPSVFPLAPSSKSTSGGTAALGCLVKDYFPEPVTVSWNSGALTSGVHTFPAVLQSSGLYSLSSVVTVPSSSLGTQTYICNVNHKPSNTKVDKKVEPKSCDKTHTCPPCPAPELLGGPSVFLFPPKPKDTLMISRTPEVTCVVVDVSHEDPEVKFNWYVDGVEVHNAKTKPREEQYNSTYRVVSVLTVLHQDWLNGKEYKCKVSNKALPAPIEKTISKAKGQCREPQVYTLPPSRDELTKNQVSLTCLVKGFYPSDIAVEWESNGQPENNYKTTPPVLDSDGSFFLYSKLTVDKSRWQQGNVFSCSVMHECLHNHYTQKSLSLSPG
light: DIVLTQSPASLAVSLGQRATISCRASESVDSYGQSYMHWYQQKAGQPPKLLIYLASNLESGVPARFSGSGSRTDFTLTIDPVQAEDAATYYCQQNAEDSRTFGGGTKLEIKGGGGGGGDIQMTQSPASLSVSVGDTITLTCHASQNIDVWLSWFQQKPGNIPKLLIYKASNLHTGVPSRFSGSGSGTGFTLTISSLQPEDIATYYCQQAHSYPFTFGGGTKLEIKRGGGGGRTVAAPSVFIFPPSDEQLKSGTASVVCLLNNFYPREAKVQWKVDNALQSGNSQESVTEQDSKDSTYSLSSTLTLSKADYEKHKVYACEVTHQGLSSPVTKSFNRGEC
In the case of B2, the “IC50 Cellular Assay IL13 [nM] (HEK-Blue IL-4/IL-13 reporter cells, SEAP)” value [2] is reported as 1.7 nM and the “IC50 Cellular Assay IL4 [nM] (HEK-Blue IL-4/IL-13 reporter cells, SEAP)” value (shortened to “IC50 Cellular Assay IL4 [nM]”) [3] is reported as 0.032 nM.

B3: CODV-Ig Batch ID 129 (IL4 × IL13 on LC; L1=1, L2=3, L3=2, L4=4) (bispecific antibody)
chain 1: not shown
chain 2: DIQMTQSPASLSVSVGDTITLTCHASQNIDVWLSWFQQKPGNIPKLLIYKASNLHTGVPSRFSGSGSGTGFTLTISSLQPEDIATYYCQQAHSYPFTFGGGTKLEIKGDIVLTQSPASLAVSLGQRATISCRASESVDSYGQSYMHWYQQKAGQPPKLLIYLASNLESGVPARFSGSGSRTDFTLTIDPVQAEDAATYYCQQNAEDSRTFGGGTKLEIKGGGRTVAAPSVFIFPPSDEQLKSGTASVVCLLNNFYPREAKVQWKVDNALQSGNSQESVTEQDSKDSTYSLSSTLTLSKADYEKHKVYACEVTHQGLSSPVTKSFNRGEC
B3 showed a Kd [4] of 0.07 nM and a Kd [5] of 0.005 nM.

B4: TBTI/DVD-Ig molecule incorporating anti-IL4 and anti-IL13 sequences (FIG. 7, upper panel) (bispecific antibody)
heavy: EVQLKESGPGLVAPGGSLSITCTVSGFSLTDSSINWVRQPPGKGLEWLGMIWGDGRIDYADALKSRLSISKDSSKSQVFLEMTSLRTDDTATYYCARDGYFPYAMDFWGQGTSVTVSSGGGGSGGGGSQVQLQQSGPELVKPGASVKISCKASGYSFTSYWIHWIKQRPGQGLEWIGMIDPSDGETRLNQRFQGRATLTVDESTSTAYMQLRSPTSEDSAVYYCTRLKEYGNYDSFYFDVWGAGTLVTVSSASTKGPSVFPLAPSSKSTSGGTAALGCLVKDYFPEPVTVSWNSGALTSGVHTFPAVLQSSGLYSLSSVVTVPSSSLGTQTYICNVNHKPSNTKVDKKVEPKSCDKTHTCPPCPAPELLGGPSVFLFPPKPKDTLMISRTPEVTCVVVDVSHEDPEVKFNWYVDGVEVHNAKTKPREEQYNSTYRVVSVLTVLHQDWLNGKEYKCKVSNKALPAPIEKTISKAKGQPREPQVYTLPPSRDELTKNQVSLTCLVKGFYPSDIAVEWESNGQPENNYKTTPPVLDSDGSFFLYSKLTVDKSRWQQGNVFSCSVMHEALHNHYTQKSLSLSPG
light: DIVLTQSPASLAVSLGQRATISCRASESVDSYGQSYMHWYQQKAGQPPKLLIYLASNLESGVPARFSGSGSRTDFTLTIDPVQAEDAATYYCQQNAEDSRTFGGGTKLEIKGGGGSGGGGSDIQMTQSPASLSVSVGDTITLTCHASQNIDVWLSWFQQKPGNIPKLLIYKASNLHTGVPSRFSGSGSGTGFTLTISSLQPEDIATYYCQQAHSYPFTFGGGTKLEIKRTVAAPSVFIFPPSDEQLKSGTASVVCLLNNFYPREAKVQWKVDNALQSGNSQESVTEQDSKDSTYSLSSTLTLSKADYEKHKVYACEVTHQGLSSPVTKSFNRGEC
notes: also called TBTI/DVD-Ig format
B4 was tested, and the Kd [6] was 0.0263 nM, the koff [6] was 0.00015 s⁻¹ and the kon [6] was 5.7e+06 M⁻¹ s⁻¹.

B5: parental anti-IL4 mAb (antibody, V domains shown)
VH: QVQLQQSGPELVKPGASVKISCKASGYSFTSYWIHWIKQRPGQGLEWIGMIDPSDGETRLNQRFQGRATLTVDESTSTAYMQLRSPTSEDSAVYYCTRLKEYGNYDSFYFDVWGAGTLVTVSS
VL: DIQMTQSPASLSVSVGDTITLTCHASQNIDVWLSWFQQKPGNIPKLLIYKASNLHTGVPSRFSGSGSGTGFTLTISSLQPEDIATYYCQQAHSYPFTFGGGTKLEIKR
notes: also called parental humanized anti-IL4; 8D4
In the case of B5, the Kd [7] is reported as 0.00783 nM, the koff [7] is reported as 0.000195 s⁻¹ and the kon [7] is reported as 2.49e+07 M⁻¹ s⁻¹.

B6: CODV-Ig Batch ID 204 (IL4 × IL13 on HC; L1=7, L2=5, L3=1, L4=2) (bispecific antibody)
heavy: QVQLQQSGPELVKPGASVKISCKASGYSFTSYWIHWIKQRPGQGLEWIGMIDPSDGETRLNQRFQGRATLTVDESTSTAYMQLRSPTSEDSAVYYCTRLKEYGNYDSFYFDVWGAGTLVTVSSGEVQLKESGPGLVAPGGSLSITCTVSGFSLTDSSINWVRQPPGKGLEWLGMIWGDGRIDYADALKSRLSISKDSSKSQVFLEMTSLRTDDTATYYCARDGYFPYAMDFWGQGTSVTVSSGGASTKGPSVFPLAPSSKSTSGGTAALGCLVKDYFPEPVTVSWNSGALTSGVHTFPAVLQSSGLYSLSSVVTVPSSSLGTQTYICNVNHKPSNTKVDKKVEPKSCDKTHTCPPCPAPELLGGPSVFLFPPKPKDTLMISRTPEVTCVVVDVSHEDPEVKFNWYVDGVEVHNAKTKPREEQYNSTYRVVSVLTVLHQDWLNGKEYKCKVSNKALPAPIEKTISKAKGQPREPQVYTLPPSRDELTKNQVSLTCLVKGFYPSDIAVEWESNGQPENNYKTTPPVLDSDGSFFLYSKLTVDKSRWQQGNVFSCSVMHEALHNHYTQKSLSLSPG
light: DIVLTQSPASLAVSLGQRATISCRASESVDSYGQSYMHWYQQKAGQPPKLLIYLASNLESGVPARFSGSGSRTDFTLTIDPVQAEDAATYYCQQNAEDSRTFGGGTKLEIKGGGGGGGDIQMTQSPASLSVSVGDTITLTCHASQNIDVWLSWFQQKPGNIPKLLIYKASNLHTGVPSRFSGSGSGTGFTLTISSLQPEDIATYYCQQAHSYPFTFGGGTKLEIKGGGGGRTVAAPSVFIFPPSDEQLKSGTASVVCLLNNFYPREAKVQWKVDNALQSGNSQESVTEQDSKDSTYSLSSTLTLSKADYEKHKVYACEVTHQGLSSPVTKSFNRGEC
notes: 704 prints 'IL13 × IL4' and format 'CODV'; also called 801; 704
For B6, the Kd [8] was 0.003 nM, the “IC50 Cellular Assay IL4 [nM]” value [9] was 0.045 nM and the Kd [10] was 0.003 nM.

B7: CODV-Ig Batch ID 603 (Batch ID 204 with P446G447 to G446E447C448 in IGHG1) (bispecific antibody)
heavy: QVQLQQSGPELVKPGASVKISCKASGYSFTSYWIHWIKQRPGQGLEWIGMIDPSDGETRLNQRFQGRATLTVDESTSTAYMQLRSPTSEDSAVYYCTRLKEYGNYDSFYFDVWGAGTLVTVSSGEVQLKESGPGLVAPGGSLSITCTVSGFSLTDSSINWVRQPPGKGLEWLGMIWGDGRIDYADALKSRLSISKDSSKSQVFLEMTSLRTDDTATYYCARDGYFPYAMDFWGQGTSVTVSSGGASTKGPSVFPLAPSSKSTSGGTAALGCLVKDYFPEPVTVSWNSGALTSGVHTFPAVLQSSGLYSLSSVVTVPSSSLGTQTYICNVNHKPSNTKVDKKVEPKSCDKTHTCPPCPAPELLGGPSVFLFPPKPKDTLMISRTPEVTCVVVDVSHEDPEVKFNWYVDGVEVHNAKTKPREEQYNSTYRVVSVLTVLHQDWLNGKEYKCKVSNKALPAPIEKTISKAKGQPREPQVYTLPPSRDELTKNQVSLTCLVKGFYPSDIAVEWESNGQPENNYKTTPPVLDSDGSFFLYSKLTVDKSRWQQGNVFSCSVMHEALHNHYTQKSLSLSGEC
light: DIVLTQSPASLAVSLGQRATISCRASESVDSYGQSYMHWYQQKAGQPPKLLIYLASNLESGVPARFSGSGSRTDFTLTIDPVQAEDAATYYCQQNAEDSRTFGGGTKLEIKGGGGGGGDIQMTQSPASLSVSVGDTITLTCHASQNIDVWLSWFQQKPGNIPKLLIYKASNLHTGVPSRFSGSGSGTGFTLTISSLQPEDIATYYCQQAHSYPFTFGGGTKLEIKGGGGGRTVAAPSVFIFPPSDEQLKSGTASVVCLLNNFYPREAKVQWKVDNALQSGNSQESVTEQDSKDSTYSLSSTLTLSKADYEKHKVYACEVTHQGLSSPVTKSFNRGEC
notes: C-terminal change P446G447 to G446E447C448
For B7, the “IC50 Cellular Assay IL4 [nM]” value [3] was 0.036 nM and the Kd [11] was 0.004 nM.

B8: CODV-Fab Batch ID 421 (IL4 × IL13; L1=7, L2=5, L3=1, L4=2) (bispecific antibody)
heavy: QVQLQQSGPELVKPGASVKISCKASGYSFTSYWIHWIKQRPGQGLEWIGMIDPSDGETRLNQRFQGRATLTVDESTSTAYMQLRSPTSEDSAVYYCTRLKEYGNYDSFYFDVWGAGTLVTVSSGEVQLKESGPGLVAPGGSLSITCTVSGFSLTDSSINWVRQPPGKGLEWLGMIWGDGRIDYADALKSRLSISKDSSKSQVFLEMTSLRTDDTATYYCARDGYFPYAMDFWGQGTSVTVSSGGASTKGPSVFPLAPSSKSTSGGTAALGCLVKDYFPEPVTVSWNSGALTSGVHTFPAVLQSSGLYSLSSVVTVPSSSLGTQTYICNVNHKPSNTKVDKKVEPKSCDKTHTHHHHHH
light: DIVLTQSPASLAVSLGQRATISCRASESVDSYGQSYMHWYQQKAGQPPKLLIYLASNLESGVPARFSGSGSRTDFTLTIDPVQAEDAATYYCQQNAEDSRTFGGGTKLEIKGGGGGGGDIQMTQSPASLSVSVGDTITLTCHASQNIDVWLSWFQQKPGNIPKLLIYKASNLHTGVPSRFSGSGSGTGFTLTISSLQPEDIATYYCQQAHSYPFTFGGGTKLEIKGGGGGRTVAAPSVFIFPPSDEQLKSGTASVVCLLNNFYPREAKVQWKVDNALQSGNSQESVTEQDSKDSTYSLSSTLTLSKADYEKHKVYACEVTHQGLSSPVTKSFNRGEC
Binder B8 has a Kd [12] of 0.012 nM.

B9: CODV-Ig Batch ID 602 (Batch ID 204 with S376C & P397C in IGHG1) (bispecific antibody)
heavy: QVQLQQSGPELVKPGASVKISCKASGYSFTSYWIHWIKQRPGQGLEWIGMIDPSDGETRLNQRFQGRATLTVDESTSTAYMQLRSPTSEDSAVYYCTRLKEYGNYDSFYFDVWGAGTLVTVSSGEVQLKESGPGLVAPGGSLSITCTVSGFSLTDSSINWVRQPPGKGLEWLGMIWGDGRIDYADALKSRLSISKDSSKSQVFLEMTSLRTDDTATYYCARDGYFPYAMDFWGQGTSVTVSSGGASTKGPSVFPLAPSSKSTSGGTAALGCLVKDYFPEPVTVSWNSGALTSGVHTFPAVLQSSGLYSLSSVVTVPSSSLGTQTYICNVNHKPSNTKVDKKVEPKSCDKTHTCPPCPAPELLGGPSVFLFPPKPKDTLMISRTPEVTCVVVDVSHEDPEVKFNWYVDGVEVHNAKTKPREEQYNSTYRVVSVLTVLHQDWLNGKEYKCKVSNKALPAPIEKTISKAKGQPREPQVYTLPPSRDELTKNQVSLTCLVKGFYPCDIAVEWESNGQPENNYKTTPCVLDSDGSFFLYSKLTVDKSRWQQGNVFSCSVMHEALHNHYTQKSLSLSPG
light: DIVLTQSPASLAVSLGQRATISCRASESVDSYGQSYMHWYQQKAGQPPKLLIYLASNLESGVPARFSGSGSRTDFTLTIDPVQAEDAATYYCQQNAEDSRTFGGGTKLEIKGGGGGGGDIQMTQSPASLSVSVGDTITLTCHASQNIDVWLSWFQQKPGNIPKLLIYKASNLHTGVPSRFSGSGSGTGFTLTISSLQPEDIATYYCQQAHSYPFTFGGGTKLEIKGGGGGRTVAAPSVFIFPPSDEQLKSGTASVVCLLNNFYPREAKVQWKVDNALQSGNSQESVTEQDSKDSTYSLSSTLTLSKADYEKHKVYACEVTHQGLSSPVTKSFNRGEC
modifications: Engineered cysteine pair in CH3 (intended intradomain disulfide C376-C397, patent's count).
notes: The mutation numbers are those of the column 'Introduced Mutations IGHG1'
B9 was tested, and the “IC50 Cellular Assay IL4 [nM]” value [3] was 0.034 nM and the Kd [11] was 0.01 nM.

B10: CODV-Ig Batch ID 130 (IL4 × IL13 on LC; L1=1, L2=4, L3=2, L4=4) (bispecific antibody)
chain 1: not shown
chain 2: DIQMTQSPASLSVSVGDTITLTCHASQNIDVWLSWFQQKPGNIPKLLIYKASNLHTGVPSRFSGSGSGTGFTLTISSLQPEDIATYYCQQAHSYPFTFGGGTKLEIKGDIVLTQSPASLAVSLGQRATISCRASESVDSYGQSYMHWYQQKAGQPPKLLIYLASNLESGVPARFSGSGSRTDFTLTIDPVQAEDAATYYCQQNAEDSRTFGGGTKLEIKGGGGRTVAAPSVFIFPPSDEQLKSGTASVVCLLNNFYPREAKVQWKVDNALQSGNSQESVTEQDSKDSTYSLSSTLTLSKADYEKHKVYACEVTHQGLSSPVTKSFNRGEC
B10 was tested, and the Kd [4] was 0.057 nM and the Kd [5] was 0.004 nM.
